The experiment concerns the target recombinant LILRA1 ECD (human, UniProt O75019 17-461). Description: BLI, IgG on AHC sensor, ECD as analyte. On the technique in general: BLI is a label-free optical method that tracks binding on a fibre tip over time.

These results are taken from EP4491230A1 (iOmx Therapeutics AG, dated 2025).

Chain of recombinant LILRA1 ECD (O75019 17-461 limits assumed): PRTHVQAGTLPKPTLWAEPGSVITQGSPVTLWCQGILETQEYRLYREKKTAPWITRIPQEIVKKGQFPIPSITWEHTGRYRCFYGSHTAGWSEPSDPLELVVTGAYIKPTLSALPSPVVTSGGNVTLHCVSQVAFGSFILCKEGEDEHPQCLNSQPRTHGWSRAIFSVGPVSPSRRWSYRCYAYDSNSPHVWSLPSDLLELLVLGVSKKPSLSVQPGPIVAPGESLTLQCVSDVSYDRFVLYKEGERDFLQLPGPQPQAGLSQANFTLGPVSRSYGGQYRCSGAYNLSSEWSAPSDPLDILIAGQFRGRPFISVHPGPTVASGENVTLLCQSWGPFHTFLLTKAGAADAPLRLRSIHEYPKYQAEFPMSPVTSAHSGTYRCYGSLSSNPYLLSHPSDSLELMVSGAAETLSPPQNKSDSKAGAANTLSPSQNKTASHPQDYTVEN

B1: A-046 (antibody, V domains shown)
VH: QVQLVQSGAEVKKPGSSVKVSCKASGGSFQSYAINWVRQAPGQGLEWMGGIIPGFSTANYAQKFQGRVTITADESTSTAYMELSSLRSEDTAVYYCAKDLGTYSSGWPYYYGMDVWGQGTTVTVSS
VL: SYELTQPPSVSVSPGQTASITCSGDKLGDKYASWYQQKPGQSPVLVIYQDSKRPSGIPERFSGSNSGNTATLTISGTQAEDEADYYCQLTHLTIYVFGGGTKLTVL
notes: HC of A-015 and LC of A-036; Tested as IgG
Take B1: the binding result is recorded as “no binding (tested: 900 nM of LILRA1 ECD)”.
